Measurements published in patent US20220289837A1, “Cystic Fibrosis Transmembrane Conductance Regulator Stabilizing Agents” (VIB VZW, priority 2019, published 2022).

Experiments:
[1] = biological target: T1, stab-CFTR: 2PT/ΔRI/R1048A_1172X (Homo sapiens, UniProt P13569, A534P/DEL405-436/I539T/R1048A/S492P); assay: NanoDSF thermostability of stab-CFTR; type: binding; conditions: versus stab-CFTR alone
T1 construct: made in house; host or cells: BHK-21 cells (ATCC CCL-10), pNUT vector
Procedure: Purified stabilized human CFTR (stab-CFTR: 2PT/ΔRI/R1048A_1172X) was concentrated to 0.5 mg/ml and mixed with 0.1 mg/ml nanobody (^˜[…]) and capillaries were loaded with a volume of 10 The capillaries were placed into trays of Prometheus NT.48 (Nanotemper) and subjected to the fluorescence analysis. The emission of fluorescent radiation with the wavelengths of 330 nm and 350 nm was measured with the temperature changes from 25 to 85° C., with the rate of 1° C. min-1. The first derivative of 350 nm fluorescence was used to determine the melting temperature of the proteins.

[2] = biological target: T2, F508del-2PT-NBD1 (Homo sapiens, UniProt P13569, A534P/DEL508-508/I539T/S492P/V470M); assay: Thermal shift assay (DSF) of F508del-2PT-NBD1; type: binding
T2 construct: His6-SUMO (N, cleaved yes); made in house; host or cells: Escherichia coli BL21(DE3) pLysS
Procedure: (§1) Solutions of either 2PT-NBD1 or F508del-2PT-NBD1 (10 μM final concentration), nanobodies (30 μM final concentration) and 2.5× or 5× concentrated SYPRO Orange Protein Stain (Molecular Probes) diluted in 20 mM HEPES pH 7.5, 150 mM NaCl, 3 mM MgCl2, 2 mM ATP and 10% (w/v) glycerol, 10% (w/v) ethylene glycol, were added to the wells of a 96-well PCR plates type BR white (VWR) in a final volume of 25 μl. Plates were sealed with EasySeal sheets (Molecular dimensions) and spun 2 min at 900× g. SYPRO orange fluorescence was monitored in CFX96 Touch Real-Time PCR Detection System (Bio-Rad) using FRET scan mode from 10 to 80° C. in increments of either 1° C. or 0.2° C.

[3] = system: parental BHK-21 cells; assay: Flow cytometry on parental BHK-21 cells; type: cell-based, hamster; conditions: compared to negative control nanobody
Procedure: (§2) Parental BHK-21 cells (ATCC; CCL-10) and cells stably overexpressing human wt-CFTR^[43,44,47] or 2PT-F508del-CFTR, as described above, were permeabilized with 0.01% n-Dodecyl-β-D-Maltopyranoside β-DDM—Inalco) at least for 2 h on ice. In the meantime, cells were incubated with 50 μg/ml nanobodies and DRAQ7 (0.3 μM—Biostatus) to monitor the permeabilization state. Nanobody binding was detected by using His-tag specific antibody (Invitrogen, catalogue number MA1-135, 1 μg/ml) or Myc-tag specific antibody (Invitrogen, catalogue number 13-2500, 2 μg/ml) and then anti-mouse-Alexa Fluor 488 (Invitrogen, catalogue number A11001, 1.3 μg/ml) at least for 30 min on ice. Cells were washed one time between each step by centrifugation (200×g for 5 min at 4° C.). All incubations (100 μl) and washes (1.5 ml) were performed in PBS with 6% fetal bovine serum (FBS) and 0.01%13-DDM on ice. Cells fluorescence was measured with Gallios Flow Cytometer (Beckman Coulter). Data were analyzed with Kaluza software.

[4] = biological target: T2, F508del-2PT-NBD1; assay: NBD1 ELISA dose-response, nanobody binding to immobilized F508del-2PT-NBD1; conditions: F508del-2PT-NBD1 versus 2PT-NBD1
Procedure: For dose-response assays, Nunc MaxiSorp 96-well plates (ThermoScientific), were coated with 5 μg/ml NeutrAvidin Biotin-Binding protein (ThermoScientific) overnight at 4° C. and blocked 2 h at room temperature (RT) with 2% milk in phosphate-buffered saline (PBS). Each new reagent addition was preceded by three washes with 200 μl of NBD1 buffer (20 mM HEPES pH 7.5, 150 mM NaCl, and 10% (w/v) glycerol, 10% (w/v) ethylene glycol, 2 mM ATP, 3 mM MgCl2). Then, biotinylated purified NBD1 proteins at 5 μg/ml were immobilized 30 min at RT followed by 1 h RT incubation with 100 μl various concentrations (0-20 μg/ml) of purified nanobodies. Signal detection was followed using His-tag specific antibody (Invitrogen, catalogue number: MA1-135, 1:3000 dilution) to detect the nanobodies and secondary antibody anti-mouse coupled to horse radish peroxidase (HRP) (Millipore, catalogue number: AP308P, 1:5000 dilution). 50 μl of 1-Step UltraTMB-ELISA (ThermoScientific) was used as a substrate for the peroxidase and intensity of the reaction was proportional to absorbance measured at 450 nm with SynergyMx (BioTek) after addition of 50 μl H2SO4 at 1M.
(§3) Affinity constants (KD) and thermodynamic parameters from ITC experiments were determined using one-site binding model with MicroCal Origin 7.0 software (Origin Lab Corp.). Dose response ELISA curves of each Nb binding to either isolated NBD1 or purified FL-CFTR were fitted using the sigmoidal dose-response equation from GraphPad Prism 3. DSC data were analyzed with the MicroCal Origin 7.0 software (Origin Lab Corp.), from which the unfolding temperature (Tm) was obtained.

[5] = biological target: T3, 2PT-NBD1 (Homo sapiens, UniProt P13569, A534P/I539T/S492P/V470M); assay: Isothermal titration calorimetry (ITC) of nanobodies into 2PT-NBD1; type: binding; conditions: 20° C., 2PT-NBD1, mean±SD (n=3)
T3 construct: 2PT-NBD1 mutants (residues 387-646 containing the mutations S492P, A534P, I539T); His6-SUMO (N, cleaved yes); made in house; host or cells: Escherichia coli BL21(DE3) pLysS
Procedure: Interactions between nanobodies and 2PT-NBD1 was carried out on NanoITC system (TA Instruments) in 0.165 ml cells at 20° C., 300 rpm syringe stirring. Proteins were extensively dialyzed in 20 mM Hepes buffer pH 7.5, 150 mM NaCl, 10% (w/v) glycerol, 10% (w/v) ethylene glycol, 2 mM ATP and 3 mM MgCl2 for 16 h at 4° C. Heat of dilution from control experiments of each nanobody titrated into buffer was subtracted from the titration into 2PT-NBD1. Data were integrated analyzed with Origin 7.0 software (Origin Lab Corp.).
as §3

[6] = biological target: T4, wt-CFTR (Homo sapiens, UniProt P13569); assay: CFTR pull-down from solubilized BHK-21 cells with immunoblot; type: binding; design: expressed in transfected cells; conditions: immunoblot with mAb 596
Procedure: Human wt-CFTR was extracted from BHK-21 cells pellet by solubilization with 1% DMNG in PBS with proteases inhibitors for 1 h at 4° C. The cells debris were removed by centrifugation (16,000×g for 30 min at 4° C.). Supernatant was diluted 10 times in PBS with proteases inhibitors plus 10 mM imidazole and incubated at least for 30 min on HisPur Ni-NTA Resin (Thermo Scientific) pre-loaded with nanobodies. Resin was washed with 40 column volumes of PBS with 300 mM NaCl. Nanobodies were eluted with 200 mM imidazole in PBS. Presence of CFTR in each sample was detected by SDS-PAGE and immuno-blotting.
Cell extracts were separated by SDS-PAGE on 7.5% polyacrylamide gel and transferred to nitrocellulose membrane (Bio-Rad) for immunodetection. After blocking for 1 h with 5% bovine serum albumin (BSA) in Tris-buffered saline added 0.05% Tween-20 (TBST), CFTR was detected using monoclonal antibody mAb 596, IgG2b (CFTR Antibody Distribution Program, dilution 1:46) for 1 h in blocking buffer. Blot was washed 3 times 5 min and incubated with anti-mouse-HRP antibody (Millipore, catalogue number: AP308P, 0.2 μg/ml) for 1 h in TBST. Membrane was washed 3 times for 5 min. CFTR was visualized by chemiluminescence using Luminata Forte Western HRP Substrate (Millipore) and detected with ImageQuant 400 (GE Healthcare).

[7] = biological target: T3, 2PT-NBD1; assay: Thermal shift assay (DSF) of 2PT-NBD1; type: binding; conditions: versus isolated 2PT-NBD1
Procedure: as §1

[8] = biological target: T4, wt-CFTR; assay: Flow cytometry on permeabilized BHK-21 cells overexpressing wt-CFTR; type: cell-based; design: expressed in transfected cells; conditions: compared to negative control nanobody
Procedure: as §2

T4 sequence (P13569 whole entry): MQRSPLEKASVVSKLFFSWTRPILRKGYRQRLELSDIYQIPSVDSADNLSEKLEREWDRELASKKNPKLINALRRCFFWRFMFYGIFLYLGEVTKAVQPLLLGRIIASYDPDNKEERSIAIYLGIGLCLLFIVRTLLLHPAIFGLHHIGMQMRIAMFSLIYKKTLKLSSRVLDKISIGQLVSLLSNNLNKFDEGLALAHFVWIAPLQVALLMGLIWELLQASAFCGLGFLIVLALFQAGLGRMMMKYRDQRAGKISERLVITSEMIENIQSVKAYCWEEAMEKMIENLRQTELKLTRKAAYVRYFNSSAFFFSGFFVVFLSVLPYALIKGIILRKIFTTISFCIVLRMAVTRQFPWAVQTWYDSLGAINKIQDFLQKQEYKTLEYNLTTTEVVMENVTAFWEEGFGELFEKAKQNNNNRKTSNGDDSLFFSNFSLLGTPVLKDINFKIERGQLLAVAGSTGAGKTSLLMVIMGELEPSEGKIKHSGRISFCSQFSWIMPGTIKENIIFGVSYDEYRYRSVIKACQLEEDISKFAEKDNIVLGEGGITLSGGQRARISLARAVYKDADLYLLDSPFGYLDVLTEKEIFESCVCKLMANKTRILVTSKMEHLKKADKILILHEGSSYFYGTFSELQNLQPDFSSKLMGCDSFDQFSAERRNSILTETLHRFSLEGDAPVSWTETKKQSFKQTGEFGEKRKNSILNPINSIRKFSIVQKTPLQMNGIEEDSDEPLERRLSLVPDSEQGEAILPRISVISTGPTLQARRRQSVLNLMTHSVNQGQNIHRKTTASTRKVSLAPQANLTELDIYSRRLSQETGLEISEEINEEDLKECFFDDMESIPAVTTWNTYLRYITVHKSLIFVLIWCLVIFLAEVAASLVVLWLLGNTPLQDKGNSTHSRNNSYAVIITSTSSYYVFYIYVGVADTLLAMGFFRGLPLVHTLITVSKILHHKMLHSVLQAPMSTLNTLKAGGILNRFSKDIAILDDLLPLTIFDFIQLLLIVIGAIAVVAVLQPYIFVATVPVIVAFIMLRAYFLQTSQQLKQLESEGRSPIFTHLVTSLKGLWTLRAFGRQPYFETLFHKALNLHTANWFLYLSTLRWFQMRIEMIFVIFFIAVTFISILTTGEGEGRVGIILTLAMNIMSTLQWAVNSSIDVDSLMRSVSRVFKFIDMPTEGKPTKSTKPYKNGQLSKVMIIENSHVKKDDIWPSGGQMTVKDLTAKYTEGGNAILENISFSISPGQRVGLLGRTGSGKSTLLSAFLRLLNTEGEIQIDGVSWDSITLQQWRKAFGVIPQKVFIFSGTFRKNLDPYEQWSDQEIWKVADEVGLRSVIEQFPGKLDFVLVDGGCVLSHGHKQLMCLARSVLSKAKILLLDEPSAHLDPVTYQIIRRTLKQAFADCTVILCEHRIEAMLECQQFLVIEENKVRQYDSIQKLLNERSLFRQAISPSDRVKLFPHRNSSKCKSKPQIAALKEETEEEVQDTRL
T3 sequence (P13569 388-646 V470M/S492P/A534P/I539T): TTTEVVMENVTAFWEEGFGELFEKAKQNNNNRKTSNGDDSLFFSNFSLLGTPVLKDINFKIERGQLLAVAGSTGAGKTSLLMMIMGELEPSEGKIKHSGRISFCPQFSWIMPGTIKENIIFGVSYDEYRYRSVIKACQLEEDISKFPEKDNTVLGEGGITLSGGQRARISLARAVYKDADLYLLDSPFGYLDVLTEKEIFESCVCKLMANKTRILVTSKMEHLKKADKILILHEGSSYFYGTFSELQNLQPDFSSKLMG
T2 sequence (P13569 with tags, fused parts or gaps V470M/S492P/DEL508-508/A534P/I539T limits assumed): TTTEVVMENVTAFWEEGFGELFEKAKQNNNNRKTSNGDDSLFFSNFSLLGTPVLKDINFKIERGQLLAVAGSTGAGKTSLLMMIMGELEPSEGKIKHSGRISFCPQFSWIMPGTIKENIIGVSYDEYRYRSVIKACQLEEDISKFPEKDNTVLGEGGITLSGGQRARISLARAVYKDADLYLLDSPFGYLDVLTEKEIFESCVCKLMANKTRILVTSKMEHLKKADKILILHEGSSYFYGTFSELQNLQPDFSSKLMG
T1 sequence (P13569 with tags, fused parts or gaps DEL405-436/S492P/A534P/I539T/R1048A limits assumed): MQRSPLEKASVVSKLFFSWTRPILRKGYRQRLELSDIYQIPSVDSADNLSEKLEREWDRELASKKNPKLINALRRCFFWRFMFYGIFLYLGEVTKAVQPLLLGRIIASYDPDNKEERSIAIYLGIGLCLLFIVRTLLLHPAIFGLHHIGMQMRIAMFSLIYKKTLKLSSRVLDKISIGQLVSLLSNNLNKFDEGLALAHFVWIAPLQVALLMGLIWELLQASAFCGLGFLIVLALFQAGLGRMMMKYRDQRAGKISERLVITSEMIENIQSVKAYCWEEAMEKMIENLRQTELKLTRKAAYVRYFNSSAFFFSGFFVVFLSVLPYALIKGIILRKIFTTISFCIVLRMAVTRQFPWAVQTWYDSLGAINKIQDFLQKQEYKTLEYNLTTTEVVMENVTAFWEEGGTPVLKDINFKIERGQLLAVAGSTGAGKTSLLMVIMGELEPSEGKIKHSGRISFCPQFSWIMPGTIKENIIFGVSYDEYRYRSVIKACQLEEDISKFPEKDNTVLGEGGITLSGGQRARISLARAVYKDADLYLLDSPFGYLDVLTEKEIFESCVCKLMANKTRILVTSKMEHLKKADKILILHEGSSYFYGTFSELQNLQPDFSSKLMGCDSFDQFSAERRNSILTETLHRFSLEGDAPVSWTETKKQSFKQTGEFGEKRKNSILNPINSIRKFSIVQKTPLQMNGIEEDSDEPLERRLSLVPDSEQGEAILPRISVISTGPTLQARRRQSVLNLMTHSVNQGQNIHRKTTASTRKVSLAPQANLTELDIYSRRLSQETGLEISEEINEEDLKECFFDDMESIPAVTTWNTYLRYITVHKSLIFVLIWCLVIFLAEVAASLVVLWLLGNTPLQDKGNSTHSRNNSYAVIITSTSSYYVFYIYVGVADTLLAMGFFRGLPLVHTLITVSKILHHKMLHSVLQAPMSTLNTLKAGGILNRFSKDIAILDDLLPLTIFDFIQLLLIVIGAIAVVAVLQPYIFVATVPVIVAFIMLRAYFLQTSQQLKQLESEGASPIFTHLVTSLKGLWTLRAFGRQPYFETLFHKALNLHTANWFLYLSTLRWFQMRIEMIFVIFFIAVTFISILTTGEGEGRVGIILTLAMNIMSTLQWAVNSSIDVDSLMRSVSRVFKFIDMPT

B1: T4: nanobody, SEQ ID NO:6, binds epitope 2 including F508, stabilizes wild type CFTR (protein)
VHH: QVQLQESGGGLVQAGGSLRLSCAASGSTFAIIAMGWYRQAPGKQRELVAVISTGDTRYADSVKGRFTISRDNAKNTVYLQMDSLRPEDTAVYYCNAAVQVRDYRNYWGQGTQVTVSS
modifications: T4 Nanobody amino acid sequence
B1 was tested, and the “thermostabilization of stab-CFTR (Tm increase)” value [1] was 8 °C, the “stabilization of F508del-2PT-NBD1” value [2] was “did not stabilize” and the “labelling of parental BHK-21 cells” value [3] was “no difference in labelling”. The “effect of F508del mutation on binding” value [4] was “drastically affected”, the Kd [5] was 37.9 ± 7 nM and the “pull-down of cellular CFTR, electrophoresis pattern (mature band C)” value [6] was “also observed”. For the same molecule, the “increase of Tm of 2PT-NBD1” value [7] was 12.5 °C and the “labelling of BHK-21 cells overexpressing wt-CFTR” value [8] was “increased labelling”.
